First the molecules themselves.
B1: Far upstream element-binding protein 3, residues 75 to 150; numbered along this chain, Q96I24 (parent)
chain: RTVITEEFKVPDKMVGFIIGRGGEQISRIQAESGCKIQIASESSGIPERPCVLTGTPESIEQAKRLLGQIVDRCRN

± gives the uncertainty stated by the source.

Variants of B1 are the subject of the data set. Kind of data set: abundance fitness (aPCA) (normalised: wild type 0, dead -1); higher = more abundant; growth selection in yeast, the domain comes from the species named. Conditions: Homo sapiens.
For RTVITEEFKVPDKMVGFIIGRGGEQISRIQAESGVKIQIASESSGIPERPCVLTGTPESIEQAKRLLGQIVDRCRN, the abundance fitness was -0.157 ± 0.032. Take RTVITEEFKVPDKMVGFIIGRGGEQISRIQAESGRKIQIASESSGIPERPCVLTGTPESIEQAKRLLGQIVDRCRN: the abundance fitness is -0.732 ± 0.035. For RTVITEEFKVPDKMVGFIIGRGGEQISRIQAESGAKIQIASESSGIPERPCVLTGTPESIEQAKRLLGQIVDRCRN, the abundance fitness was -0.025 ± 0.034. RTVITEEFKVPDKMVGFIIGRGGEQISRIQAESGGKIQIASESSGIPERPCVLTGTPESIEQAKRLLGQIVDRCRN: the abundance fitness is -0.663 ± 0.031. Regarding RTVITEEFKVPDKMVGFIIGRGGEQISRIQAESGIKIQIASESSGIPERPCVLTGTPESIEQAKRLLGQIVDRCRN, the abundance fitness is -0.397 ± 0.082.

On to RTVITEEFKVPDKMVGFIIGRGGEQISRIQAESGSKIQIASESSGIPERPCVLTGTPESIEQAKRLLGQIVDRCRN, for which the abundance fitness was -0.276 ± 0.039. As to RTVITEEFKVPDKMVGFIIGRGGEQISRIQAESGQKIQIASESSGIPERPCVLTGTPESIEQAKRLLGQIVDRCRN, the abundance fitness was -0.588 ± 0.074. Regarding RTVITEEFKVPDKMVGFIIGRGGEQISRIQAESGCVIQIASESSGIPERPCVLTGTPESIEQAKRLLGQIVDRCRN, the abundance fitness was -0.101 ± 0.032. On to RTVITEEFKVPDKMVGFIIGRGGEQISRIQAESGCCIQIASESSGIPERPCVLTGTPESIEQAKRLLGQIVDRCRN, for which the abundance fitness is -0.116 ± 0.049. For the variant RTVITEEFKVPDKMVGFIIGRGGEQISRIQAESGCSIQIASESSGIPERPCVLTGTPESIEQAKRLLGQIVDRCRN, the abundance fitness was -0.034 ± 0.035. Turning to RTVITEEFKVPDKMVGFIIGRGGEQISRIQAESGCTIQIASESSGIPERPCVLTGTPESIEQAKRLLGQIVDRCRN, the abundance fitness is -0.051 ± 0.04. Turning to RTVITEEFKVPDKMVGFIIGRGGEQISRIQAESGCFIQIASESSGIPERPCVLTGTPESIEQAKRLLGQIVDRCRN, the abundance fitness is -0.234 ± 0.07.

In the case of RTVITEEFKVPDKMVGFIIGRGGEQISRIQAESGCYIQIASESSGIPERPCVLTGTPESIEQAKRLLGQIVDRCRN, the abundance fitness was -0.14 ± 0.059.

In the case of RTVITEEFKVPDKMVGFIIGRGGEQISRIQAESGCQIQIASESSGIPERPCVLTGTPESIEQAKRLLGQIVDRCRN, the abundance fitness was -0.065 ± 0.045. The same measure for RTVITEEFKVPDKMVGFIIGRGGEQISRIQAESGCMIQIASESSGIPERPCVLTGTPESIEQAKRLLGQIVDRCRN: -0.066 ± 0.042; for RTVITEEFKVPDKMVGFIIGRGGEQISRIQAESGCDIQIASESSGIPERPCVLTGTPESIEQAKRLLGQIVDRCRN: 0.001 ± 0.054; for RTVITEEFKVPDKMVGFIIGRGGEQISRIQAESGCIIQIASESSGIPERPCVLTGTPESIEQAKRLLGQIVDRCRN: -0.112 ± 0.061. As to RTVITEEFKVPDKMVGFIIGRGGEQISRIQAESGCEIQIASESSGIPERPCVLTGTPESIEQAKRLLGQIVDRCRN, the abundance fitness was -0.02 ± 0.039.

RTVITEEFKVPDKMVGFIIGRGGEQISRIQAESGCWIQIASESSGIPERPCVLTGTPESIEQAKRLLGQIVDRCRN: the abundance fitness was -0.18 ± 0.037. The same measure for RTVITEEFKVPDKMVGFIIGRGGEQISRIQAESGCGIQIASESSGIPERPCVLTGTPESIEQAKRLLGQIVDRCRN: -0.112 ± 0.029. The same measure for RTVITEEFKVPDKMVGFIIGRGGEQISRIQAESGCRIQIASESSGIPERPCVLTGTPESIEQAKRLLGQIVDRCRN: -0.027 ± 0.029.

Take RTVITEEFKVPDKMVGFIIGRGGEQISRIQAESGCPIQIASESSGIPERPCVLTGTPESIEQAKRLLGQIVDRCRN: the abundance fitness is -0.811 ± 0.063.

As for RTVITEEFKVPDKMVGFIIGRGGEQISRIQAESGCLIQIASESSGIPERPCVLTGTPESIEQAKRLLGQIVDRCRN, the abundance fitness was -0.057 ± 0.035.

As for RTVITEEFKVPDKMVGFIIGRGGEQISRIQAESGCAIQIASESSGIPERPCVLTGTPESIEQAKRLLGQIVDRCRN, the abundance fitness was -0.065 ± 0.034. The same measure for RTVITEEFKVPDKMVGFIIGRGGEQISRIQAEMGCKIQIASESSGIPERPCVLTGTPESIEQAKRLLGQIVDRCRN: -0.646 ± 0.052; for RTVITEEFKVPDKMVGFIIGRGGEQISRIQAEGGCKIQIASESSGIPERPCVLTGTPESIEQAKRLLGQIVDRCRN: -0.747 ± 0.032; for RTVITEEFKVPDKMVGFIIGRGGEQISRIQAEHGCKIQIASESSGIPERPCVLTGTPESIEQAKRLLGQIVDRCRN: -0.716 ± 0.087. Take RTVITEEFKVPDKMVGFIIGRGGEQISRIQAEFGCKIQIASESSGIPERPCVLTGTPESIEQAKRLLGQIVDRCRN: the abundance fitness was -0.591 ± 0.072. In the case of RTVITEEFKVPDKMVGFIIGRGGEQISRIQAEIGCKIQIASESSGIPERPCVLTGTPESIEQAKRLLGQIVDRCRN, the abundance fitness is -0.358 ± 0.088. Turning to RTVITEEFKVPDKMVGFIIGRGGEQISRIQAETGCKIQIASESSGIPERPCVLTGTPESIEQAKRLLGQIVDRCRN, the abundance fitness is -0.063 ± 0.042. The same measure for RTVITEEFKVPDKMVGFIIGRGGEQISRIQAEPGCKIQIASESSGIPERPCVLTGTPESIEQAKRLLGQIVDRCRN: -0.728 ± 0.06; for RTVITEEFKVPDKMVGFIIGRGGEQISRIQAEVGCKIQIASESSGIPERPCVLTGTPESIEQAKRLLGQIVDRCRN: -0.247 ± 0.033; for RTVITEEFKVPDKMVGFIIGRGGEQISRIQAERGCKIQIASESSGIPERPCVLTGTPESIEQAKRLLGQIVDRCRN: -0.827 ± 0.036. The same measure for RTVITEEFKVPDKMVGFIIGRGGEQISRIQAENGCKIQIASESSGIPERPCVLTGTPESIEQAKRLLGQIVDRCRN: -0.685 ± 0.075; for RTVITEEFKVPDKMVGFIIGRGGEQISRIQAEQGCKIQIASESSGIPERPCVLTGTPESIEQAKRLLGQIVDRCRN: -0.732 ± 0.057. As for RTVITEEFKVPDKMVGFIIGRGGEQISRIQAEKGCKIQIASESSGIPERPCVLTGTPESIEQAKRLLGQIVDRCRN, the abundance fitness was -0.787 ± 0.081.

The values above are taken from the Human Domainome abundance scans (Beltran et al. 2025).
